Results published in patent US20220402983A1 (Janssen / Centocor, published 2022).
*1 amine or outer side, *2 acyl side, *3 side chain or, on linkers, in order; H or OH if unused. Bridges are numbered along the chain shown (N, C = ends). Where no end group is shown, it is not given here. [ ]: non-standard residue; d: D form. The star is where a group is joined. Phe(4-(2-(Boc)aminoethoxy)) = phenylalanine with 4-(2-(Boc-amino)ethoxy) on the ring, CC(C)(C)OC(=O)NCCOc1ccc(C[C@H](N[*:1])C(=O)[*:2])cc1; Phe(3,5-F2) = N[C@@H](Cc1cc(F)cc(F)c1)C(=O)O; 2Nal = N[C@@H](Cc1ccc2ccccc2c1)C(=O)O; AEF = NCCOc1ccc(C[C@H](N)C(=O)O)cc1; αMeY = C[C@](N)(Cc1ccc(O)cc1)C(=O)O; Cyclopropanecarbonyl = O=C(C1CC1)*; αMeF = C[C@](N)(Cc1ccccc1)C(=O)O; αMeE = C[C@](N)(CCC(=O)O)C(=O)O; Pen = CC(C)(S)[C@H](N)C(=O)O; αMeK = C[C@](N)(CCCCN)C(=O)O; αMeC = C[C@](N)(CS)C(=O)O; Ac6c = NC1(C(=O)O)CCCCC1; Thp = NC1(C(=O)O)CCOCC1; Abu = CC[C@H](N)C(=O)O; Aib = CC(C)(N)C(=O)O; Propionyl = CCC(=O)*; Butyryl = CCCC(=O)*; Propyl = CCC*

target: T1, human IL-23R (interleukin-23 receptor) (human, UniProt Q5VWK5 24-629); test: cell-based or functional assay
T1 sequence (looked up): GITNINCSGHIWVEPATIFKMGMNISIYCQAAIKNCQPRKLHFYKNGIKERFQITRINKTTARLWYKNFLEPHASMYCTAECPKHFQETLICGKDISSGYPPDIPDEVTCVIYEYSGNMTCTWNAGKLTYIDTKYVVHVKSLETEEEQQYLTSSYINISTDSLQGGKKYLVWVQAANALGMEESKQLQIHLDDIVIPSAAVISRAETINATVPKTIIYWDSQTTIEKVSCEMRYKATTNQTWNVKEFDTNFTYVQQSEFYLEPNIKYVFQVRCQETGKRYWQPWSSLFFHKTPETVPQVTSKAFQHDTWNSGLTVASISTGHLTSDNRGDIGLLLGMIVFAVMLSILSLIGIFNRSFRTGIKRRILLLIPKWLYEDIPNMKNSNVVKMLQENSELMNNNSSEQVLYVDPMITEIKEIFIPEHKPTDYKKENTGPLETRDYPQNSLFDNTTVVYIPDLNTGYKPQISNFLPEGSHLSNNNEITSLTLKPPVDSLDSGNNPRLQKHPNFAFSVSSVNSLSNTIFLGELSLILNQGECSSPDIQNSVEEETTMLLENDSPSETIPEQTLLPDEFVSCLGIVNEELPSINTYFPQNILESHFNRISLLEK

Row | Binder | PBMC pSTAT3 IC50 (nM)
1 | Ac-[dR][Pen]QTWQ[Pen][AEF][2Nal][Thp]K(Propionyl)NF-NH2 (disulfide 2-7; SMILES CCC(=O)NCCCC[C@H](NC(=O)C1(NC(=O)[C@H](Cc2ccc3ccccc3c2)NC(=O)[C@H](Cc2ccc(OCCN)cc2)NC(=O)[C@H]2NC(=O)[C@H](CCC(N)=O)NC(=O)[C@H](Cc3c[nH]c4ccccc34)NC(=O)[C@H]([C@@H](C)O)NC(=O)[C@H](CCC(N)=O)NC(=O)[C@@H](NC(=O)[C@@H](CCCNC(=N)N)NC(C)=O)C(C)(C)SSC2(C)C)CCOCC1)C(=O)N[C@@H](CC(N)=O)C(=O)N[C@@H](Cc1ccccc1)C(N)=O) [Compound No. 54] | 47 nM
2 | Ac-[dR][Pen]QTWQ[Pen][AEF][2Nal][Thp]K(Ac)NF-NH2 (disulfide 2-7; SMILES CC(=O)NCCCC[C@H](NC(=O)C1(NC(=O)[C@H](Cc2ccc3ccccc3c2)NC(=O)[C@H](Cc2ccc(OCCN)cc2)NC(=O)[C@H]2NC(=O)[C@H](CCC(N)=O)NC(=O)[C@H](Cc3c[nH]c4ccccc34)NC(=O)[C@H]([C@@H](C)O)NC(=O)[C@H](CCC(N)=O)NC(=O)[C@@H](NC(=O)[C@@H](CCCNC(=N)N)NC(C)=O)C(C)(C)SSC2(C)C)CCOCC1)C(=O)N[C@@H](CC(N)=O)C(=O)N[C@@H](Cc1ccccc1)C(N)=O) [Compound No. 53] | 29 nM
3 | Ac-[dR]CQTWQ[Pen][AEF][2Nal][Ac6c][αMeE]N[αMeF]-NH2 (disulfide 2-7; SMILES CC(=O)N[C@H](CCCNC(=N)N)C(=O)N[C@H]1CSSC(C)(C)[C@@H](C(=O)N[C@@H](Cc2ccc(OCCN)cc2)C(=O)N[C@@H](Cc2ccc3ccccc3c2)C(=O)NC2(C(=O)N[C@@](C)(CCC(=O)O)C(=O)N[C@@H](CC(N)=O)C(=O)N[C@@](C)(Cc3ccccc3)C(N)=O)CCCCC2)NC(=O)[C@H](CCC(N)=O)NC(=O)[C@H](Cc2c[nH]c3ccccc23)NC(=O)[C@H]([C@@H](C)O)NC(=O)[C@H](CCC(N)=O)NC1=O) [Compound No. 40] | 220 nM
4 | Ac-[dR][Pen]QTWQ[Pen][AEF][2Nal][Thp]K(Ac)N[Thp]-NH2 (disulfide 2-7; SMILES CC(=O)NCCCC[C@H](NC(=O)C1(NC(=O)[C@H](Cc2ccc3ccccc3c2)NC(=O)[C@H](Cc2ccc(OCCN)cc2)NC(=O)[C@H]2NC(=O)[C@H](CCC(N)=O)NC(=O)[C@H](Cc3c[nH]c4ccccc34)NC(=O)[C@H]([C@@H](C)O)NC(=O)[C@H](CCC(N)=O)NC(=O)[C@@H](NC(=O)[C@@H](CCCNC(=N)N)NC(C)=O)C(C)(C)SSC2(C)C)CCOCC1)C(=O)N[C@@H](CC(N)=O)C(=O)NC1(C(N)=O)CCOCC1) [Compound No. 56] | 4.9 nM
5 | Propyl-[dR][Abu]QTWQ[αMeC][AEF][2Nal][Thp]ENF-NH2 (thioether 2-7) [Compound No. 48] | 7.2 nM
6 | Ac-[dR][Pen]QTWQ[Pen][AEF][2Nal][Thp]K(Butyryl)N[Thp]-NH2 (disulfide 2-7; SMILES CCCC(=O)NCCCC[C@H](NC(=O)C1(NC(=O)[C@H](Cc2ccc3ccccc3c2)NC(=O)[C@H](Cc2ccc(OCCN)cc2)NC(=O)[C@H]2NC(=O)[C@H](CCC(N)=O)NC(=O)[C@H](Cc3c[nH]c4ccccc34)NC(=O)[C@H]([C@@H](C)O)NC(=O)[C@H](CCC(N)=O)NC(=O)[C@@H](NC(=O)[C@@H](CCCNC(=N)N)NC(C)=O)C(C)(C)SSC2(C)C)CCOCC1)C(=O)N[C@@H](CC(N)=O)C(=O)NC1(C(N)=O)CCOCC1) [Compound No. 52] | 16 nM
7 | Ac-[dR][Abu]QTWQC[AEF][2Nal][Thp][αMeE]N[2Nal]-NH2 (thioether 2-7) [Compound No. 35] | 25 nM
8 | Ac-[dR][Abu]QTWQC[AEF][2Nal][Thp][αMeE]N[αMeY]-NH2 (thioether 2-7) [Compound No. 44] | 9.3 nM
9 | [dR][Abu]QTWQC[Phe(4-(2-(Boc)aminoethoxy))][2Nal][Thp]EN[Thp]-NH2 (thioether 2-7) [Compound No. 47] | 5.3 nM
10 | Ac-[dR][Pen]QTWQ[Pen][AEF][2Nal][Thp]K(Cyclopropanecarbonyl)N[Thp]-NH2 (disulfide 2-7; SMILES CC(=O)N[C@H](CCCNC(=N)N)C(=O)N[C@@H]1C(=O)N[C@@H](CCC(N)=O)C(=O)N[C@@H]([C@@H](C)O)C(=O)N[C@@H](Cc2c[nH]c3ccccc23)C(=O)N[C@@H](CCC(N)=O)C(=O)N[C@H](C(=O)N[C@@H](Cc2ccc(OCCN)cc2)C(=O)N[C@@H](Cc2ccc3ccccc3c2)C(=O)NC2(C(=O)N[C@@H](CCCCNC(=O)C3CC3)C(=O)N[C@@H](CC(N)=O)C(=O)NC3(C(N)=O)CCOCC3)CCOCC2)C(C)(C)SSC1(C)C) [Compound No. 51] | 27 nM
11 | Ac-[dR][Abu]QTWQC[AEF][2Nal][Ac6c][αMeE]NF[Aib][αMeK]-NH2 (thioether 2-7) [Compound No. 45] | 17 nM
12 | Ac-[dR][Abu]QTWQC[AEF][2Nal][Thp][Ac6c]N[αMeF]-NH2 (thioether 2-7) [Compound No. 50] | 14 nM
13 | Ac-[dR][Pen]QTWQ[Pen][AEF][2Nal][Thp]K(Cyclopropanecarbonyl)NF-NH2 (disulfide 2-7; SMILES CC(=O)N[C@H](CCCNC(=N)N)C(=O)N[C@@H]1C(=O)N[C@@H](CCC(N)=O)C(=O)N[C@@H]([C@@H](C)O)C(=O)N[C@@H](Cc2c[nH]c3ccccc23)C(=O)N[C@@H](CCC(N)=O)C(=O)N[C@H](C(=O)N[C@@H](Cc2ccc(OCCN)cc2)C(=O)N[C@@H](Cc2ccc3ccccc3c2)C(=O)NC2(C(=O)N[C@@H](CCCCNC(=O)C3CC3)C(=O)N[C@@H](CC(N)=O)C(=O)N[C@@H](Cc3ccccc3)C(N)=O)CCOCC2)C(C)(C)SSC1(C)C) [Compound No. 55] | 25 nM
14 | Ac-[dR][Abu]QTWQC[AEF][2Nal][Thp][αMeE]N[Thp]-NH2 (thioether 2-7) [Compound No. 37] | 11 nM
15 | Ac-[dR][Abu]QTWQC[Phe(3,4-diOMe)][2Nal][Thp][αMeE]N[αMeF]-NH2 (thioether 2-7) [Compound No. 41] | 2500 nM
16 | Ac-[dR][Abu]QTWQ[Pen][AEF][2Nal][Ac6c][αMeE]N[Thp]-NH2 (thioether 2-7) [Compound No. 39] | 92 nM
17 | Ac-[dR][Pen]QTWQ[Pen][AEF][2Nal][Thp]K(Propionyl)N[Thp]-NH2 (disulfide 2-7; SMILES CCC(=O)NCCCC[C@H](NC(=O)C1(NC(=O)[C@H](Cc2ccc3ccccc3c2)NC(=O)[C@H](Cc2ccc(OCCN)cc2)NC(=O)[C@H]2NC(=O)[C@H](CCC(N)=O)NC(=O)[C@H](Cc3c[nH]c4ccccc34)NC(=O)[C@H]([C@@H](C)O)NC(=O)[C@H](CCC(N)=O)NC(=O)[C@@H](NC(=O)[C@@H](CCCNC(=N)N)NC(C)=O)C(C)(C)SSC2(C)C)CCOCC1)C(=O)N[C@@H](CC(N)=O)C(=O)NC1(C(N)=O)CCOCC1) [Compound No. 57] | 18 nM
18 | Ac-[dR][Abu]QTWQC[AEF][2Nal][Ac6c]EN[Thp]-NH2 (thioether 2-7) [Compound No. 42] | 6.7 nM
19 | Ac-[dR][Abu]QTWQC[AEF][2Nal][Ac6c][αMeE]N[Thp]-NH2 (thioether 2-7) [Compound No. 38] | 4.3 nM
20 | Ac-[dR][Abu]QTWQC[AEF][2Nal][Thp][αMeE]N[αMePhe(4-F)]-NH2 (thioether 2-7) [Compound No. 36] | 14 nM
21 | Ac-[dR][Abu]QTWQC[AEF][2Nal][Thp][Aib]NF-NH2 (thioether 2-7) [Compound No. 49] | 18 nM
22 | Ac-[dR][Abu]QTWQC[AEF][2Nal][Thp][αMeE]N[Phe(3,5-F2)]-NH2 (thioether 2-7) [Compound No. 46] | 48 nM
23 | Ac-[dR][Abu]QTWQC[AEF][2Nal][Thp][αMeE]NF[Aib][αMeK]-NH2 (thioether 2-7) [Compound No. 43] | 8.2 nM
